Results published in US20240343815A1 (CHIA TAI TIANQING PHARMACEUTICAL GROUP, published 2024).
Where two headings read alike, the source gives them in different places.

Key:
[1] = target: T1, human IL4Rα on HEK293T-IL4Rα-STAT6-STAT6LUC-LB2 cells (human, UniProt P24394 26-825); assay: cell-based or functional assay
[2] = target: T2, recombinant human IL4Rα-his protein (human, UniProt P24394 26-232, biotinylated in the capture ELISA and the benchmark blocking ELISA); assay: SPR Biacore, mAb captured, IL4Rα-his analyte
T2 construct: also called biotinylated human IL4Rα-his protein
Description: Briefly, a goat anti-human IgG (GE Healthcare, Cat. No. BR100839, Human Antibody Capture Kit) was covalently attached to a CMS chip (carboxymethylated dextran-coated chip) via the primary amine group using a standard amine coupling kit supplied by Biacore (GE Healthcare, Pittsburgh, PA, USA). Unreacted portions on the biosensor surface were blocked with ethanolamine. Then, the anti-IL4Rα antibody in the present disclosure at 66.67 nM and an anti-IL4Rα antibody benchmark (dupilumab, or DUPIXENT® or BM) at 10 μg/mL were directed through the chip at a flow rate of 10 μL/min. A recombinant human IL4Rα-his protein (prepared in-house, amino acid sequence set forth in SEQ ID NO: 15), a cynomolgus monkey IL4Rα-his protein (Sino Biological Inc., Cat. No. 90897-008H), or a marmoset monkey IL4Rα-his protein (customized product from Sino Biological Inc., denoted as cal-IL4Rα-his, amino acid sequence set forth in SEQ ID NO: 16) serially diluted with an HBS EP buffer (supplied by Biacore) was directed through the chip at a flow rate of 30 μIJmin. The antigen-antibody binding kinetics was tracked for 2 min and the dissociation kinetics was tracked for 10 min. The association and dissociation curves were fitted according to a 1:1 Langmuir binding model using BIA evaluation software, and the KD, Kₐ, and Kd values were determined.
According to the protocol in the examples above, the binding affinity of the humanized antibodies to human IL4Rα was assessed by the BIAcore technique, and the Kₐ, Kd, and KD values were determined and summarized in Table 3.

[3] = target: T1, human IL4Rα on …; assay: cell-based or functional assay; remark: listed apart in the source

| Binder | Dissociation (%) [2] | other results |
| --- | --- | --- |
| Mouse C2C1A1A1 (antibody, V domains shown) VH: EVQLVESGGGLVQPGGSLKLSCAASGFTFSTYGMSWVRQTPDKRLELVATINSNGGSTSYPDSVKGRFTISRDNAKNTLYLQMSSLKSEDTAMFYCARFFRFRNAMDYWGQGTSVTVSS VL: DIQMTQSPASLSASVGETVTITCRTSENIYSYLAWYQQKQGKSPQFLVYNAKTLAEGVPSRFSGSGSGTQFSLNINSLQSEDFGSYYCQHYYGPPTWTFGGGTKLEIK | – | Inhibition of IL4-induced STAT6 phosphorylation (IC50, nM) [1]: 0.19 nM; Inhibition of IL13-induced STAT6 phosphorylation (IC50, nM) [1]: 0.27 nM |
| huC2C1A1A1-V4 (antibody, human IgG4 S228P, kappa, V domains shown, Humanized IgG4/kappa) VH: EVQLVESGGGLVQPGGSLRLSCAASGFTFSTYGMSWVRQAPGKGLVWVSTINSNGGSTSYPDSVKGRFTISRDNAKNTLYLQMNSLRAEDTAVYYCARFFRFRNAMDYWGQGTLVTVSS VL: DIQMTQSPSSLSASVGDRVTITCRTSENIYSYLAWYQQKPGKAPKFLIYNAKTLAEGVPSRFSGSGSGTDFTLTISSLQPEDFATYYCQHYYGPPTWTFGQGTKVEIKR | 0.2% | – |
| huC2C1A1A1-V1 (antibody, human IgG4 S228P, kappa, V domains shown, Humanized IgG4/kappa) VH: EVQLVESGGGLVQPGGSLRLSCAASGFTFSTYGMSWVRQAPGKGLVWVSTINSNGGSTSYPDSVKGRFTISRDNAKNTLYLQMNSLRAEDTAVYYCARFFRFRNAMDYWGQGTLVTVSS VL: DIQMTQSPSSLSASVGDRVTITCRTSENIYSYLAWYQQKPGKAPKLLIYNAKTLAEGVPSRFSGSGSGTDFTLTISSLQPEDFATYYCQHYYGPPTWTFGQGTKVEIKR | 0.23% | – |
| huC2C1A1A1-V2 (antibody, human IgG4 S228P, kappa, V domains shown, Humanized IgG4/kappa) VH: EVQLVESGGGLVQPGGSLRLSCAASGFTFSTYGMSWVRQAPGKGLVWVSTINSNGGSTSYPDSVKGRFTISRDNAKNTLYLQMNSLRAEDTAVYYCARFFRFRNAMDYWGQGTLVTVSS VL: DIQMTQSPSSLSASVGQRVTITCRTSENIYSYLAWYQQKQGKPPRFLIYNAKTLAEGVPSRFSGSGSGTEFTLTITSLQAEDFGVYYCQHYYGPPTWTFGPGTKLEIKR | -0.2% | – |
| huC2C1A1A1-V3 (antibody, human IgG4 S228P, kappa, V domains shown, Humanized IgG4/kappa) VH: EVQLVESGGGLVQPGGSLRLSCAASGFTFSTYGMSWVRQAPGKGLVWVSTINSNGGSTSYPDSVKGRFTISRDNAKNTLYLQMNSLRAEDTAVYYCARFFRFRNAMDYWGQGTLVTVSS VL: DIQMTQSPSSLSASVGDRVTITCRTSENIYSYLAWYQQKPGKAPKFLVYNAKTLAEGVPSRFSGSGSGTDFTLTISSLQPEDFATYYCQHYYGPPTWTFGQGTKVEIKR | -0.62% | – |
| huC2C1A1A1-V5 (antibody, human IgG4 S228P, kappa, V domains shown, Humanized IgG4/kappa) VH: EVQLVESGGGLVQPGGSLRLSCAASGFTFSTYGMSWVRQSPDKRLEWVSTINSNGGSTSYPDSVKGRFTISRDNAKNTLYLQMRSLRAEDTAVYYCARFFRFRNAMDYWGQGTLVTVSS VL: DIQMTQSPSSLSASVGDRVTITCRTSENIYSYLAWYQQKPGKAPKLLIYNAKTLAEGVPSRFSGSGSGTDFTLTISSLQPEDFATYYCQHYYGPPTWTFGQGTKVEIKR | -2.28% | – |
| huC2C1A1A1-V7 (antibody, human IgG4 S228P, kappa, V domains shown, Humanized IgG4/kappa) VH: EVQLVESGGGLVQPGGSLRLSCAASGFTFSTYGMSWVRQSPDKRLEWVSTINSNGGSTSYPDSVKGRFTISRDNAKNTLYLQMRSLRAEDTAVYYCARFFRFRNAMDYWGQGTLVTVSS VL: DIQMTQSPSSLSASVGDRVTITCRTSENIYSYLAWYQQKPGKAPKFLVYNAKTLAEGVPSRFSGSGSGTDFTLTISSLQPEDFATYYCQHYYGPPTWTFGQGTKVEIKR | -0.66% | – |
| huC2C1A1A1-V8 (antibody, human IgG4 S228P, kappa, V domains shown, Humanized IgG4/kappa) VH: EVQLVESGGGLVQPGGSLRLSCAASGFTFSTYGMSWVRQSPDKRLEWVSTINSNGGSTSYPDSVKGRFTISRDNAKNTLYLQMRSLRAEDTAVYYCARFFRFRNAMDYWGQGTLVTVSS VL: DIQMTQSPSSLSASVGDRVTITCRTSENIYSYLAWYQQKPGKAPKFLIYNAKTLAEGVPSRFSGSGSGTDFTLTISSLQPEDFATYYCQHYYGPPTWTFGQGTKVEIKR | -1.23% | – |
| huC2C1A1A1-V9 (antibody, human IgG4 S228P, kappa, V domains shown, Humanized IgG4/kappa) VH: EVQLVESGGGLVQPGGSLRLSCAASGFTFSTYGMSWVRQAPGKGLVLVATINSNGGSTSYPDSVKGRFTISRDNAKNTLYLQMNSLRAEDTAVYYCARFFRFRNAMDYWGQGTLVTVSS VL: DIQMTQSPSSLSASVGDRVTITCRTSENIYSYLAWYQQKPGKAPKLLIYNAKTLAEGVPSRFSGSGSGTDFTLTISSLQPEDFATYYCQHYYGPPTWTFGQGTKVEIKR | -0.24% | – |
| huC2C1A1A1-V11 (antibody, human IgG4 S228P, kappa, V domains shown, Humanized IgG4/kappa) VH: EVQLVESGGGLVQPGGSLRLSCAASGFTFSTYGMSWVRQAPGKGLVLVATINSNGGSTSYPDSVKGRFTISRDNAKNTLYLQMNSLRAEDTAVYYCARFFRFRNAMDYWGQGTLVTVSS VL: DIQMTQSPSSLSASVGDRVTITCRTSENIYSYLAWYQQKPGKAPKFLVYNAKTLAEGVPSRFSGSGSGTDFTLTISSLQPEDFATYYCQHYYGPPTWTFGQGTKVEIKR | -0.92% | – |
| huC2C1A1A1-V12 (antibody, human IgG4 S228P, kappa, V domains shown, Humanized IgG4/kappa) VH: EVQLVESGGGLVQPGGSLRLSCAASGFTFSTYGMSWVRQAPGKGLVLVATINSNGGSTSYPDSVKGRFTISRDNAKNTLYLQMNSLRAEDTAVYYCARFFRFRNAMDYWGQGTLVTVSS VL: DIQMTQSPSSLSASVGDRVTITCRTSENIYSYLAWYQQKPGKAPKFLIYNAKTLAEGVPSRFSGSGSGTDFTLTISSLQPEDFATYYCQHYYGPPTWTFGQGTKVEIKR | -1.88% | – |
| huC2C1A1A1-V13 (antibody, human IgG4 S228P, kappa, V domains shown, Humanized IgG4/kappa) VH: EVQLVESGGGLVQPGGSLRLSCAASGFTFSTYGMSWVRQAPGKGLVWVATINSNGGSTSYPDSVKGRFTISRDNAKNTLYLQMNSLRAEDTAVYYCARFFRFRNAMDYWGQGTLVTVSS VL: DIQMTQSPSSLSASVGDRVTITCRTSENIYSYLAWYQQKPGKAPKLLIYNAKTLAEGVPSRFSGSGSGTDFTLTISSLQPEDFATYYCQHYYGPPTWTFGQGTKVEIKR | 0.82% | – |
| huC2C1A1A1-V14 (antibody, human IgG4 S228P, kappa, V domains shown, Humanized IgG4/kappa) VH: EVQLVESGGGLVQPGGSLRLSCAASGFTFSTYGMSWVRQAPGKGLVWVATINSNGGSTSYPDSVKGRFTISRDNAKNTLYLQMNSLRAEDTAVYYCARFFRFRNAMDYWGQGTLVTVSS VL: DIQMTQSPSSLSASVGQRVTITCRTSENIYSYLAWYQQKQGKPPRFLIYNAKTLAEGVPSRFSGSGSGTEFTLTITSLQAEDFGVYYCQHYYGPPTWTFGPGTKLEIKR | 0.8% | Inhibition of IL4-induced STAT6 phosphorylation (IC50, nM) [3]: 0.64 nM; Inhibition of IL13-induced STAT6 phosphorylation (IC50, nM) [3]: 0.73 nM |
| huC2C1A1A1-V15 (antibody, human IgG4 S228P, kappa, V domains shown, Humanized IgG4/kappa) VH: EVQLVESGGGLVQPGGSLRLSCAASGFTFSTYGMSWVRQAPGKGLVWVATINSNGGSTSYPDSVKGRFTISRDNAKNTLYLQMNSLRAEDTAVYYCARFFRFRNAMDYWGQGTLVTVSS VL: DIQMTQSPSSLSASVGDRVTITCRTSENIYSYLAWYQQKPGKAPKFLVYNAKTLAEGVPSRFSGSGSGTDFTLTISSLQPEDFATYYCQHYYGPPTWTFGQGTKVEIKR | 0.29% | Inhibition of IL4-induced STAT6 phosphorylation (IC50, nM) [3]: 0.61 nM; Inhibition of IL13-induced STAT6 phosphorylation (IC50, nM) [3]: 0.6 nM |
| huC2C1A1A1-V16 (antibody, human IgG4 S228P, kappa, V domains shown, Humanized IgG4/kappa) VH: EVQLVESGGGLVQPGGSLRLSCAASGFTFSTYGMSWVRQAPGKGLVWVATINSNGGSTSYPDSVKGRFTISRDNAKNTLYLQMNSLRAEDTAVYYCARFFRFRNAMDYWGQGTLVTVSS VL: DIQMTQSPSSLSASVGDRVTITCRTSENIYSYLAWYQQKPGKAPKFLIYNAKTLAEGVPSRFSGSGSGTDFTLTISSLQPEDFATYYCQHYYGPPTWTFGQGTKVEIKR | -0.42% | – |
| huC2C1A1A1-V6 (antibody, human IgG4 S228P, kappa, V domains shown, Humanized IgG4/kappa) VH: EVQLVESGGGLVQPGGSLRLSCAASGFTFSTYGMSWVRQSPDKRLEWVSTINSNGGSTSYPDSVKGRFTISRDNAKNTLYLQMRSLRAEDTAVYYCARFFRFRNAMDYWGQGTLVTVSS VL: DIQMTQSPSSLSASVGQRVTITCRTSENIYSYLAWYQQKQGKPPRFLIYNAKTLAEGVPSRFSGSGSGTEFTLTITSLQAEDFGVYYCQHYYGPPTWTFGPGTKLEIKR | -0.59% | – |
| huC2C1A1A1-V10 (antibody, human IgG4 S228P, kappa, V domains shown, Humanized IgG4/kappa) VH: EVQLVESGGGLVQPGGSLRLSCAASGFTFSTYGMSWVRQAPGKGLVLVATINSNGGSTSYPDSVKGRFTISRDNAKNTLYLQMNSLRAEDTAVYYCARFFRFRNAMDYWGQGTLVTVSS VL: DIQMTQSPSSLSASVGQRVTITCRTSENIYSYLAWYQQKQGKPPRFLIYNAKTLAEGVPSRFSGSGSGTEFTLTITSLQAEDFGVYYCQHYYGPPTWTFGPGTKLEIKR | -1.54% | – |
